In experiment [1] the target is GmALMT12/QUAC1 (aluminum-activated malate transporter 12 / quick anion channel 1 from Glycine max) (Glycine max (soybean)). Put plainly: cryo-EM structure.
Experiment [2] has as its target GmALMT12/QUAC1 cytoplasmic helical domain (CHD, residues 221 to 537), wild type (Glycine max (soybean)). Kind of experiment: SEC. (In gel filtration, larger molecules generally elute earlier.)

Usually stoichiometry N stands for the number of molecules, sites or subunits per partner or assembly. In experiment [1], “GmALMT12/QUAC1 (aluminum-activated malate transporter 12 / quick anion channel 1 from Glycine max) (natural protein)” gave a stoichiometry N of 2.
“GmALMT12/QUAC1 cytoplasmic helical domain (CHD, residues 221 to 537), wild type (domain or fragment)” yielded a stoichiometry N in experiment [2] of 2.

These data come from paper PMC8890709.
